From patent US20260116990A1

Assays:
[1] = target: His-tagged ectodomain of human transferrin receptor 1 (hTfR1, R121-F760) (human) (UniProt P02786); assay: SPR; binder on protein A chip, hTfR1 as analyte, without hTf
[2] = target: His-tagged ectodomain of human transferrin receptor 1 (hTfR1, R121-F760) (human) (UniProt P02786); assay: SPR; binder on protein A chip, hTfR1 as analyte, in presence of 250 nM hTf
[3] = target: His-tagged ectodomain of human transferrin receptor 1 (hTfR1, R121-F760) (human) (UniProt P02786); assay: SPR Biacore T200 single-cycle; hTfR1 captured on amine-coupled hTf, binder as analyte; 1:1 model

Chain of His-tagged ectodomain of human transferrin receptor 1 (hTfR1, R121-F760) (human) (P02786 other isoform, or with tags, fused parts or gaps limits assumed): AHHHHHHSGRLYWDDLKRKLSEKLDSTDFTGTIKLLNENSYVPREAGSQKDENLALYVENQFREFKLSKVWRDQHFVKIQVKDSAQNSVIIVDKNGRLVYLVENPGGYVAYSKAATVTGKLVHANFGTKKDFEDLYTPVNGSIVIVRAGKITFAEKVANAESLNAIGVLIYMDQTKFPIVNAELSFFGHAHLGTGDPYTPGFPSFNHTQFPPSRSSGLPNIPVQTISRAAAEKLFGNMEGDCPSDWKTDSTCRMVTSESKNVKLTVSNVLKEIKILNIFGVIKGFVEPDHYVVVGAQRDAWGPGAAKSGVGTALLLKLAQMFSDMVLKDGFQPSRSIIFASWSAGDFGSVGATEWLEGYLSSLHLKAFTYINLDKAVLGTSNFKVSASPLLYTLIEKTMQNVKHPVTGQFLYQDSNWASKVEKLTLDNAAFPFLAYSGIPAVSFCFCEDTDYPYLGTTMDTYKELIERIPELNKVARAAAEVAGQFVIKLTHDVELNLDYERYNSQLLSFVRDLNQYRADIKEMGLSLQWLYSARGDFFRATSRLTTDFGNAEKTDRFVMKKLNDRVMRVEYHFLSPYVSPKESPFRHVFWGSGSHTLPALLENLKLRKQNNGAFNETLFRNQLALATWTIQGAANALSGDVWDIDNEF

- Kd [1]: 0.101 nM
- koff [1]: 8.87e-05 s⁻¹
- kon [1]: 882000 M⁻¹ s⁻¹
- Kd [2]: 0.0834 nM
- koff [2]: 5.77e-05 s⁻¹
- kon [2]: 692000 M⁻¹ s⁻¹
- Kd [3]: 0.0199 nM
- koff [3]: 5.63e-05 s⁻¹
- kon [3]: 2.82e+06 M⁻¹ s⁻¹
Substance: Benchmark antibody 128.1 (BA1), full length human IgG1
